Measured values published in the DeepSol protein solubility set.

Test: soluble on expression in E. coli; label from the status in PepcDB or PDB records

Sequence	soluble on expression in E. coli
MNTTPLVIGAYAALPATRADQETFYDRLHADLEATGLELPFRDSIHDDPAWLASQLAGRFTDSIITAIPGTMMRVWDGGTFGLASPDDDGRNAAIAFTRSIIDSARALDDAAGHRVIAGIHIHSAPSVTANRDQFLRSLTELLEGMDNDDPRLIIEHCDRYNEAVTGEKRFLSIEQEIAIAKETGIGITVNWGRSAMEAYDTQLPARHIQALVAEGVFEGVMFSGAGDKENTFGAAWADLHLPHHVDEPASLMDDDRIAECLSAAGGAQKYHGAKIQAPADVDVATRVTMLGHITRHLR	soluble
MSGNTVKLNVGGTVFETLKSTLTKHDGFFKALIETDVPAEKDDSNCFFIDRSPKHFETVLNYMRSGDVVLPDSKKDMLELKKEAEYYLLSNLAKLCQPPTDNFKTCTPEELMRVVANTDKKVIMINYLTYNGELVFYPWGFNLVHFLIQNRDYVEDVYFRRTESQYPEDGPFPNEKPYWTFLVYNSTRSGRRPFRHTVDLEDCMGHM	not soluble
MGSSHHHHHHGSLPPREDAARVARFVTHVSDWGALATISTLEAVRGRPFADVLSLSDGPPGAGSGVPYFYLSPLQLSVSNLQENPYATLTMTLAQTNFCKKHGFDPQSPLCVHIMLSGTVTKVNETEMDIAKHSLFIRHPEMKTWPSSHNWFFAKLNITNIWVLDYFGGPKIVTPEEYYNVTVQ	soluble
AAKHHFDEIHYLDIVDCNGGDHHKAFATNFNPEINIREITQKGKYWENGRWIETEPQEIHKTLTYPSIGERESYLLYHEELESLVKNFPTIKRARFWMTFGQEYLTHLRVMQNIGMTRIDPIMYNGVEIVPIQFLKAVLPNPGDLGENYTGETSIGCRIRGIRDGKERTYYIWNNCSHEVAYKETGTQG	not soluble
MATDQKRGLLIVFEGLDRSGKSTQAKRLVESINKKSTESGDASSSPSAVLQAFPDRSSSIGKLIDQYLRKEIDMDEHALHLLFSADRFSKNQMIRDNIAKGIDVICDRYCYSGVAYSLAKGLPEQWVRSSDVGLPKPDAVLFFDVSPEVAAQRGGFGEERLETATIQQKVAAVMPTLRDDAYWKTVNADGDLDSVEKNVFRIYENLDREKPFESLEKI	not soluble
MKHARRLRQLSQENLAHISGLSQSAVASYENGLRQSSRSIRKLAIALQVNLDWLETGAGPMELEAYPSGPAAWRPGLMEPGGERAAAPWPFRAVAHARYQALSARDKLLLEQLVRTFIDTCHADYGRAPPWPRER	not soluble
MSLATQAVSLARVRGPLALAALTLLGACSTRTAVPTPAPVAGSPSVAPESPRPPEVASGYRTGMTTAYAEQHMAAAANPLAAEAGRRILRQGGSAIDAAIAMQAVLTLVEPQASGIGGGAFLLYWDGKRVQAYDGWETAPAGADENLFLRPDGTSMGLSEARIGGRAVGVPGVLRALELAHRRYGKLPWTRLLQPAVELAEQGFPVSPRLYTQIAADPFIAGSPEMAAYFLTPQGKPKPVGTIVRNPQLAQTLREIARHGPGAFYAGPIAADIVKRVSGGANPGTLSLADLRGYRAKERDPICADYQRWKVCGMPPPSSGGIAIAQMLGTLQALAARDPKYALAAMAPRETTRAAGLEPSVDAVHVVSEAGRQADADRGLYVADADFVPVNVKGLTDPGYLTLRAGLIGDRSTGRADPGTPPGTSIALAPDRSPPRVSTSQIVAVDNAGGAVSMTTAIDSDFGAHLMVRGFVLNSGLTDFSFVPNDGGKPVANRVQAGKRPRSSMAPTLVFERDSGRLVAALGSPGGSQSIEYVSKTLIGLLDWDMDVQSAINLPNFGSRNGPTEVERGLVTQPLVQGLKARGHDVAQIEMTSGTQAIVRRRRDDGRWGWAGGADPRREGVALGDEGHHHHHH	not soluble
MAKDDVIEVEGTVLETLPNAMFKVELENGHVVLAHVSGKIRMNFIRILPGDKVTVELSPYDLNRGRITYRFK	not soluble
MIDTTVFQDKTAVYYTLGCKLNFSETSTIGKILREAGVRTARKGEKADLCIVNTCSVTEMADKKCRQAIHRLVKQHPGAFVVVTGCYAQLKPGDVAKIEGVDVVLGAEQKKDLLQYLGDLHKHEGGEAYTTATKDIRSFAPSCSRGDRTRFFLKVQDGCDYFCSYCTIPFARGRSRNGTIASLVEQARQAAAEGGKEIVLTGVNIGDFGKSTGETFFDLVKALDRVEGIERYRISSIEPNLLTDEIIEYVSRSRSFMPHFHIPLQSGSDEVLQLMRRRYGTELFASKIAKIKEVMPDVFIGVDVIVGTRGETAGYFEKAYEFIHGLDVTQLHVFSYSERPGTQALKIDHVVTPEEKHQRSQRLLALSDEKTKAFYARYIGQTMPVLMEKPKAGALMHGFTANYIRVEVESDAALDNKVVNVLLGDFNEEGTALKGTITQLEHHHHHH	not soluble
MIITIPIKNQKDIGTPSDSVVVLGYFDGIHKGHQELFRVANKAARKDLLPIVVMTFNESPKIALEPYHPDLFLHILNPAERERKLKREGVEELYLLDFSSQFASLTAQEFFATYIKAMNAKIIVAGFDYTFGSDKKTAEDLKNYFDGEVIIVPPVEDEKGKISSTRIRQAILDGNVKEAGKLLGAP	not soluble
MRYRPVIGLEIHVQLSTKTKAFCSCPADVFELPPNTAICPVCTGQPGALPVPNEEMIRFAVKTALALNCKIHKYSRFDRKNYFYPDLPKGYQISQYFYPIATEGFLEIDGDEGRKKVRIRRLHLEEDAGKLVHEGDSITRASYSLVDMNRCGVPLIEIVTEPDISSPREARVFMEKLRSIVRYLGVSTGDMEKGALRCDANISVVDTETGRQSNRVEVKNMNSFRFVERALEYEFERIVKAMERGEDVERETRGWDMATKITVSMRGKEEESDYRYFPEPDIPPVVLSDEYLEEVKKELPELPDEKAERFMREYGLPEYDAKVLTSSKELAEFFEECVKVVNRPKDLSNWIMTEVLRELNERNIEITESKLTPQHFADLFKLMDEGKISIKIAKEIFPEVFETGKMPSQIVEEKGLTQINDEKLIEELVKKAMEQNPKAVQDYKSGKKKAAGFFVGYVMRETKGKANPELTNRIIQKLLEGE	soluble
MSSHPPIRSYVLRQGYFSNAQRHAYESLLPRYGIPLTEEPVDLDSIFGRTAPGILEIGSGMGETTAEIARQHPEKDFIAIEVHAPGIGSLLGQIEKHRLTNLRIIPHDAKLVLQQMFTSESLDGIHIFFPDPWPKARHHKRRLIQPDFVSLLCDRLKPGGYLHIATDWEDYATHILHVLRSEERFVNTAVDYAARPAYRPLTKFEQRGMKLGHTIRDIIFTRTALEHHHHHH	not soluble
MGSSHHHHHHGGTGENLYFQGGSGRPAGTLASFLERCSARKRGRGCVVLTGAGCSTESGIPDYRGPNGQYHRADFVLLTFQKFMRDDNEKRRYWARSMLGYSTMCGASCNAAHMALQAFTKSGAVAHILTQNVDGLHHLATYGGVGDAEEEHYYKYTTSDAPLKELHGNIHNVICTSCGFFMPRARLQRELRERNPGFYEQYGADVSRTRPDGDYSAPTEAVNAMHLVMCPRCNGFFKPHVVLFGENVPKPIVEATMSLVRDKASCLLCLGTSLQVYSAYRYVLQANQLGIPVAIVNAGTTRGDAIADLKLDVESVGSVLAETAHEMLGVPASMFFRRKTIQL	not soluble
MPRLVVNSIYASGAQYQGSSSKLYVNVSNLGTENAYNVLIQVYVNGKVYGSTTVSEIKAGASDNVSINWVPPTSGKVSVYATASVNSEPRSFVTAGALTQTVSVNPLEHHHHHH	not soluble
MAHHHHHHMSESPMCLFIACSTRDNTSREYIYTILKNRLLGSHVCIDTNILDVPTNLKFCSFDDLLKCADDLQKYDSYAYGCLKKIEKLAKEYDENIELKIIYQRQHINIDQYIRRFTWDDAKYPRNRSLTDTIDVMVNNITKLSDEIHIKSSMLNDLKEKKKKDIPKTDTNNFFLKNLNEILTPQTVSQADFMETEYLTTLIAYIPKNSVDEWLASYEKFSQYVVPRSTEQFKGLVDKDGNTLWKVYVFKKFAESFKEAAKLKKFVVKSFKYDEQKYNDVMESRTKVEAEIIRQETFLRRMCLAAFSDIFSAFIHINILRVFCESVLRFGVPPNFASFSIRINGESKEKKVRKKLYDIFSSTDSIGKNYIKRSDENDEEIYPYVSVSFKI	not soluble
MSTQSILTKPTEATAFQPDQVVRILETVLLTTPEPLSISDLKKLFEGNIDKKTLHESLTILSEKWHDSGINLVSVAGGWRFQSKPEMQVFLDRLNPQRPPRYSRAVMETLAIIAYRQPVTRGDIEEIRGVAVSTQIIKTLESRGWIETIGQRDIPGKPYLYATTRHFLDDLNLQSLEQLPSLDSFNSLDLSADEAESVDTDTTTIQESGEPASHEPTQLL	not soluble
MNDRLCFEVHDNKGYFVFPDTWFGPLLGEFEEVLDAYDADEISETSYINKLRRLAQREPDFIDIHAHLAYAFLEQNAPRKALNAALKGLAAGNRIIPESFCGEIIWMHPENRPYLRALYAAILANVHLQRHQDAVMLTDKILAYNPEDNQGARWLLGSELLRTGDHERAFSVLKEHADEFSPYWYELGLLHFLNGEHVKAATAFRHGFATNTYIAEMLCGNLHPFPLAVWHDFSGSLDTAEDYYATYSPLWGQYPEALLFVNWLYNHSSVLHERSEIIKCAEMLIQEDDFEICESILRQQEHLWKRIDKTLSEEIVQKCRNMNGEYIWPWILPFSAAGMKHSSIQYQMAGDPLEHHHHHH	soluble
MRKFMMSVVMLAALTSCATQNMHGNYAAVSIEANKTMADVTVAQLVALYPPAHTRLDFQQTITDPYGAALLSALRKKGYSVLEYNPQPQAVPAKSAATAALVTANPTSGLPLSYVVDSPESMNLYRITVQIGVQSISRAFVVATNGNLYPAGAWVRKELEHHHHHH	not soluble
MSLGKMVIGFAHPDFNDMFLGFLLAGVQAYEAEQTNVEVVYVDAENDSDGQIAQVEDLIAQGVDAIMAIPVDLIATEFIVDRAQQAGVPVVLINRDSVEREDAYVGSDSLQAGTIQMEEVAAVLKGKGKIAIMNGQMGHTAQINRTLGNKQVVDQYPGMEVVIEGTGGWSREKGKELMESWIESGQTFDAVVANNDEMAIGAIMAAEEAGIVDELVFAGIDGTPDALDYMSKGKLTISVFQDAKGQGQTGLEQAIKLAKGESAEKMTNIPYETITKRNVDEGHHHHHH	soluble
MKIARLNLWHVPLTSHTAYYMADGKTCDTVETVVIAVQTDTGITGWGEVCPIPHYLPAYARGVAPALTELAPVILGADPVGVGALMERVDAVLHGHPYAKSALDIALWDITGQVAGLPLHALLGGWRAADMPLYHSITCIAPDDMARIAREAQAQGITQFQVKLGASGDWQTDVERLAKVREAVGPGPLVYGDWNCGATSLEAIRVGRAVAQLDIMLEQPCATLEDCARVQRATGLPMKIDELAHDTASLLTAHRLGIMDAVALKLSKFGGLSTTRRARDLCLHLGARMCIEDTWGSDITTAALLHLGAASEPGRVLNVCDLSGYVAPRLAPDAPVRANGRIAPPEGAGLGITVDRGALGVPDLILD	soluble
MGSDKIHHHHHHMDKATTPPEFERRRARAAQYLRMSTERQIYSIDNQRDAIRNYAEVMGYDIVATYEDPGRSGLSILGRPGLKRLIEDIESRRADFETVVVYDVSRWGRFQNTDESASYEYRCQRAGVRIEFCAELFVNDGSIGSDVLKAIKRSMAAEYSRMLSNRVFAGQSRIVKLGFSGGGPAGYGLRRLLVDGSGNPKAILHRDQRKGLASDRVVLVPGPENEVSTVRWIFNQFVKKGKTAVEIASALNARGLVTEFGRPWTGACVGTILASEKYVGNIVWNRISHRLLQNRLRNPPSAFVRADNVIEPLVTRALFDRAQAIRRARTYLRPDEELLADLTKLLKERGRLSSPIIDAAPGCHSASIYAHRFGSMNAAYQLIGYDGSANYRKLDIRRRLIQIRQQTIENLMSDIEGVGGSALYDPQTKIMRVNDEFSVAIWTAQYRMNVTGFPRWPFWKRGLIGPEVTILIRMESDNQTVRDFLIAPAHEAQSALHMLKADNGVRLDAFLFASLDPVVEMARREPMPANI	not soluble
